Test [1] deals with chymotrypsin.
The target of test [2] is β-amylase WT (barley (Hordeum vulgare) cv. Harrington) (UniProt P16098). In words: MST; β-amylase labelled with an NHS-ester fluorescent dye (70 nM), unlabelled serpin Z4 from 40 μM to 1 nM; PBS with 0.1% Tween-20; Monolith NT.115; three replicates combined.
Test [3] has the same target.
Test [4] has the same target. In words: SPR; β-amylase immobilised by amine coupling on a CM5 chip, serpin Z4 injected at 0.6, 0.5, 0.4, 0.3 and 0.2 μM; PBS; Biacore T200. On the technique in general: SPR reads the build-up and loss of mass on a sensor chip optically.
Test [5] shares this target. This is another data set of the same source.
The target is the same in test [6]. This is another data set of the same source.

B1: serpin BsZx (natural protein)
chain: MATTDIRLSIAHQTRFAVRLASAISSPSHAKGSSGNAAFSPLSLHVALSLVAAGAAATRDQLAATLGAAEKGDAEGLHALAEQVVQVVLADASGAGGPRSFANVFVDSSLKLKPSFKDLVVGKYKGETQSVDFQTKAPEVAGQVNSWVEKITTGLIKEILPAGSVDSTTRLVLGNALYFKGSWTEKFDASKTKDEKFHLLDGSSVQTPFMSSTKKQYISSYDSLKVLKLPYQQGGDKRQFSMYILLPEAQDGLWNLANKLSTEPEFMEKHMPMQKVPVGQFKLPKFKISFGFEASDMLKGLGLQLPFSSEADLSEMVDSPAARSLYVSSVFHKSFVEVNEEGTEAAARTARVVTLRSLPVEPVKVDFVADHPFLFLIREDLTGVVLFVGHVFNPLVSA
Turning to B1, the inhibition factor X inh from the residual peptidase activity of chymotrypsin on casein, serpin:protease 2:1 in test [1] was determined as 0.88.

B2: serpin Z4 (natural protein)
chain: MATTLATDVRLSIAHQTRFALRLRSAISSNPERAAGNVAFSPLSLHVALSLITAGAAATRDQLVAILGDGGAGDAKELNALAEQVVQFVLANESSTGGPRIAFANGIFVDASLSLKPSFEELAVCQYKAKTQSVDFQHKTLEAVGQVNSWVEQVTTGLIKQILPPGSVDNTTKLILGNALYFKGAWDQKFDESNTKCDSFHLLDGSSIQTQFMSSTKKQYISSSDNLKVLKLPYAKGHDKRQFSMYILLPGAQDGLWSLAKRLSTEPEFIENHIPKQTVEVGRFQLPKFKISYQFEASSLLRALGLQLPFSEEADLSEMVDSSQGLEISHVFHKSFVEVNEEGTEAGAATVAMGVAMSMPLKVDLVDFVANHPFLFLIREDIAGVVVFVGHVTNPLISA
In general, Kd refers to the free concentration of one partner at which half of the binding sites on the other are occupied at equilibrium, for simple one-to-one binding. Turning to B2, the Kd in test [2] was found to be 200 nM. Further, the Vmax of β-amylase with serpin Z4 at a 1:5 molar ratio (Lineweaver-Burk), with or without DTT in test [3] worked out at 2 fold. In test [4], this molecule gave a Kd of 142 nM. The molecule also came in with a β-amylase activity (DNSA) over 37-62°C with serpin Z4 at 1:5; at 50°C against β-amylase alone at optimal temperatures in test [5] of 60%. Moreover, in test [6], the EC50 of serpin Z4 for the enhancement of β-amylase activity, Betamyl-3 method was found to be 180 nM and the EC50 of serpin Z4 for the enhancement of β-amylase activity, DNSA method was found to be 300 nM.

(Values after paper PMC6508567.)
